The supplement of paper PMC10724198
± gives the standard deviation of the averaged measurements.

Each sequence was assayed on Saccharomyces cerevisiae (assay: protein stability index of tFT-peptide fusion (C-terminal peptide) (PSI (0-1 scale)); higher = more stable (slower turnover)). Conditions: genetic background: wild type; temperature: 30 C.
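Further: PSI is a weighted mean of sequencing reads over stability bins, variants kept only with over 10 reads, mCherry proximal and sfGFP distal, peptide attached via GGGS linker.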

Sequence	protein stability index
TARQNRARPGHP	0.678 ± 0.022
AHGASLCVPPSP	0.512 ± 0.013
PESAWLSPRCVF	0.6696 ± 0.0039
IKKKKKKKKKRD	0.652 ± 0.016
LLHFSSPPLLPV	0.634 ± 0.055
KKNTKKKQVNQE	0.747 ± 0.05
QSKIKNKNIKIK	0.671 ± 0.017
SPQPPHSPLSAR	0.653 ± 0.024
IDSNLCFVKSYT	0.618 ± 0.064
MICGCLWGSEGR	0.627 ± 0.11
IQKNKQEVKTNI	0.685 ± 0.1
PPVRRPAHATTG	0.722 ± 0.038
LEWHRPLCPPLF	0.734 ± 0.075
EVKDDSKVVVYV	0.666 ± 0.022
PLLLSPPPLYTF	0.632 ± 0.028
GQTTVLPSIYKR	0.673 ± 0.047
FPSTPRPPLPPP	0.668 ± 0.014
LLFTFFFLLLFS	0.527 ± 0.23
SVYVGAQAFCTC	0.612 ± 0.025
FKWSGGGRGVGP	0.679 ± 0.08
FPRGPLPPAPSP	0.6556 ± 0.006
EVAVELIGAPGL	0.699 ± 0.1
ILFSSDLNSFSW	0.744 ± 0.03
RSISGVNMENVQ	0.639 ± 0.018
AVGQAGITSLVL	0.699 ± 0.029
KLQKKTRQKKKK	0.653 ± 0.035

Sequence	protein stability index
GAGLGGGRGRRW	0.68617 ± 0.00065
FFLRSPLFPCSH	0.72173 ± 0.00052
GRVAGNERGGGR	0.6083 ± 0.006
PRLLPSTCEREV	0.618 ± 0.066
SQAALLIPLFSL	0.681 ± 0.03
SDDTIQNQICPG	0.66 ± 0.059
WVPGPLEPSLVL	0.774 ± 0.0096
WSTVCKIAGAID	0.706 ± 0.028
DFCSVDLNLCIV	0.61 ± 0.011
FRRGGVERGVEG	0.723 ± 0.026
GVGWFGRGTVGW	0.676 ± 0.035
HPSREPLLLCYH	0.618 ± 0.067
PPPPPLPPPPPT	0.696 ± 0.087
GRETGGGKSRRK	0.687 ± 0.013
GGFRREPWEILR	0.649 ± 0.0012
SSPPPCPLPTYP	0.624 ± 0.068
EKGRERREGGRK	0.749 ± 0.044
PPAPTAPPLSSH	0.681 ± 0.03
VWVWHGAVLMGG	0.527 ± 0.017
NQVNEELDKKGH	0.719 ± 0.14
GGWGGKLVGRMG	0.708 ± 0.0083
SLAPSARLYPYH	0.768 ± 0.03
EVEINGRLVGKM	0.646 ± 0.097
PPAALPRSTPPP	0.704 ± 0.063
SPSLAPSPSALL	0.598 ± 0.018
GGGCGMEPGCGP	0.687 ± 0.062

Sequence	protein stability index
GHRMMWLFGVPA	0.59 ± 0.035
VYMAGSFSRLFQ	0.723 ± 0.034
KKTKKKKNKKQE	0.716 ± 0.081
AEVRRQEGTVGV	0.707 ± 0.036
CTCTVSMLPRTC	0.639 ± 0.017
FRCFDAQRLGGV	0.6858 ± 0.002
PKVDLSVVRSGY	0.638 ± 0.016
TLAKSSQNLMCV	0.744 ± 0.085
EGEDRVEPGTQT	0.722 ± 0.045
YYPRGIYHNSMT	0.713 ± 0.033
RLLAGLPLGGGN	0.656 ± 0.051
PRHPLAPLPLPS	0.724 ± 0.026
TNTRKIINMEKQ	0.717 ± 0.077
PPHSPETVPARP	0.688 ± 0.046
LGWGRWFWGVRG	0.653 ± 0.026
TYGPSLPVHAVT	0.686 ± 0.012
ASNPGPLTPPQP	0.705 ± 0.0087
VLGLGVVACWAV	0.569 ± 0.013
ISSTGYQARHRG	0.688 ± 0.03
HRNAFLLPPFPL	0.695 ± 0.014
DGWKERDSGVVG	0.701 ± 0.018
AGRSCGRHEPPK	0.579 ± 0.098
HFLPFSLLLFPP	0.755 ± 0.14
SYLVLLHDRGMK	0.665 ± 0.011
APCLLNTLRPSP	0.686 ± 0.033
LRLECESIKRYT	0.61 ± 0.055

Sequence	protein stability index
TSKGLGSRSAHP	0.665 ± 0.044
SPLSLPSIPFGV	0.672 ± 0.075
PLPARSPPPTSV	0.652 ± 0.026
EIKNKENKLKKT	0.684 ± 0.03
SHDLASRQSAFR	0.648 ± 0.059
LIRIHPNGPKFM	0.708 ± 0.083
SGLSPPSRVCGY	0.651 ± 0.068
RSPINSRRGGVV	0.689 ± 0.0097
RNTSQNRIDEKL	0.657 ± 0.014
TRNTNYNKKIKV	0.6801 ± 0.0022
SFGLAPLSSFFC	0.705 ± 0.078
LITGRGFGFVVV	0.674 ± 0.024
FPPVVSSLPPPS	0.686 ± 0.14
LYLKKIQQGIIK	0.69 ± 0.039
PGRLTTERLSFQ	0.7 ± 0.043
RQKAQESNTQPP	0.73 ± 0.044
SGLPPYTPPLSF	0.80558 ± 0.00056
PPTPHPSTPALP	0.714 ± 0.075
SGWRGVVGRGGR	0.625 ± 0.027
GAVRGGSGDWGR	0.723 ± 0.0083
RPAPASAFPHSP	0.69 ± 0.045
PPPLPPSIPLPL	0.743 ± 0.031
GVGGGEECHGVG	0.556 ± 0.018
